According to US20240174727A1, “LONG-ACTING NATRIURETIC PEPTIDES AND USES THEREOF” (Eli Lilly and Company, priority 2022, published 2024):
Numbered stars: 1 amine (or outer) side, 2 acyl side, 3 side chain; on linkers, the order of the positions; unused ones are H or OH. Bridge positions count the residues as written; N and C are the ends. Square brackets hold non-standard residues; d marks the D form. Ends that are not written are not given here. * marks the point of attachment. thioacetal = thioacetal linkage between two cysteines (intrachain bond at the bracketed Cys); C20 diacid = O=C(O)CCCCCCCCCCCCCCCCCCC(=O)*; γGlu = O=C(O)[C@H](CCC(=O)[*:2])N[*:1]; 4Pal = N[C@@H](Cc1ccncc1)C(=O)O; βAla = NCCC(=O)O

T1: human NPRA (human, UniProt P16066 33-1061)
T1 sequence (looked up): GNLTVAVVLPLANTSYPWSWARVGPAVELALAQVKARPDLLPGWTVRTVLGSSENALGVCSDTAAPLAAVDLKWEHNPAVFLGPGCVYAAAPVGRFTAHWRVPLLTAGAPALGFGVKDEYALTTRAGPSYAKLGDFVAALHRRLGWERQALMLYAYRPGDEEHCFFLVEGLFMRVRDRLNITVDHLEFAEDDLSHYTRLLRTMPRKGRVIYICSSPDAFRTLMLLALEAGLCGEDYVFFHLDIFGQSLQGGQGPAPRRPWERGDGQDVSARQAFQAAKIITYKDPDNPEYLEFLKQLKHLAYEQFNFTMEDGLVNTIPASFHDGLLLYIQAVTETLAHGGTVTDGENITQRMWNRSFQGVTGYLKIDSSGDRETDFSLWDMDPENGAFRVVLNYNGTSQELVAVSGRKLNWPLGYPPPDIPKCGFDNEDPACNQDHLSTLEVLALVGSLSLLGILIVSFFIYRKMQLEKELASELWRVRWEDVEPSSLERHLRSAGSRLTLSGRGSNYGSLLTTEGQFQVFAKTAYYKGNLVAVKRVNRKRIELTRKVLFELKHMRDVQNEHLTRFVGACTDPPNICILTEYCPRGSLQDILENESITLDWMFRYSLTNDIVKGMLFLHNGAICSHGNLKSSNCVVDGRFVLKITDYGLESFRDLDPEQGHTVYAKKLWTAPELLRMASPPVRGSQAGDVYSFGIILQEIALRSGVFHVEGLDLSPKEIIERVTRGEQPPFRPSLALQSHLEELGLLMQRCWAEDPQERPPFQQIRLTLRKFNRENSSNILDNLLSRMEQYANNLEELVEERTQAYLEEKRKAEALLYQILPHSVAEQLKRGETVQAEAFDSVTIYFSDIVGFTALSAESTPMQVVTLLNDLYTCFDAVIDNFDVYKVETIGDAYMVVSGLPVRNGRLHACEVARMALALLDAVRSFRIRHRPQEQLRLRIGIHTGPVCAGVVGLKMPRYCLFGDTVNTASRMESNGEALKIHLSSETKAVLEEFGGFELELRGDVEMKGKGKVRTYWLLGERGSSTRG

T2: rat NPRA (rat, UniProt P18910 29-1057)
T2 sequence (looked up): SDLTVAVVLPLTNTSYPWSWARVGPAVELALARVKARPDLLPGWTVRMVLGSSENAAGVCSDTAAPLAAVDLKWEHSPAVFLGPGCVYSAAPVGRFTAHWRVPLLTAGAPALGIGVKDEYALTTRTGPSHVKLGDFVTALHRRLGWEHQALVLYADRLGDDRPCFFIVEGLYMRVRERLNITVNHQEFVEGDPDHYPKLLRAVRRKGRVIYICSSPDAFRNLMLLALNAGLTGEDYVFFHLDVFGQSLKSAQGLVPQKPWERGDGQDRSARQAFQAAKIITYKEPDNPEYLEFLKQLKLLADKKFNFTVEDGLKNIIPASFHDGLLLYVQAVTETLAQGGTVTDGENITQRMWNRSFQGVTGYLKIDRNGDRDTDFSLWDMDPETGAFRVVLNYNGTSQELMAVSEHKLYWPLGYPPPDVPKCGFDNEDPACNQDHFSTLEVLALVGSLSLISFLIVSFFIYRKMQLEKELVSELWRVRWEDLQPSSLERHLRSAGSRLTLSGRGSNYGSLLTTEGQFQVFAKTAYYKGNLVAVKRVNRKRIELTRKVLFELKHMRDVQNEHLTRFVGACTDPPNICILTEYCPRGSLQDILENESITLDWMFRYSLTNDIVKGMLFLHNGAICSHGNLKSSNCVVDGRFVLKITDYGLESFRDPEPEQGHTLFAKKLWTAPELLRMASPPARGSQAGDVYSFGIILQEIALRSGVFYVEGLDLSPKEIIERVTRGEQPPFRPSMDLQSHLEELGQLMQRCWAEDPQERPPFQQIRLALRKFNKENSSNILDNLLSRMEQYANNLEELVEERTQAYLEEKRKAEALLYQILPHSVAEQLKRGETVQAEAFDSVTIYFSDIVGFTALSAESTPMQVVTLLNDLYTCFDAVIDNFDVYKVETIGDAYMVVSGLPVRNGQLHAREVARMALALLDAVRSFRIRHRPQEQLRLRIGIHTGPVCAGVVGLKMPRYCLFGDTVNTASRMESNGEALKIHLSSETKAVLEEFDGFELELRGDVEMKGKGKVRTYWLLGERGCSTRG

B1: Example 3 (peptide)
peptide: EKXRSSCFGKRIDRIGHQSGLGCPSFRHGGKSSGAPPPS
modifications: HOOC-(CH2)18-CO-(γGlu)-EKEKEKG-PEG24-EK-βAla-RSS[CFGKRIDRIGHQSGLGC]PSFRHGGKSSGAPPPS-NH2; thioacetal linkage between the bracketed Cys
B2: Example 1 (peptide)
peptide: XEKEKEKGSXRRSSCFGGRIDRIGHQSGLGCPSFRHGGPSSGAPPPS
modifications: HOOC-(CH2)18-CO-(γGlu)-EKEKEKGS-4Pal-RRSS[CFGGRIDRIGHQSGLGC]PSFRHGGPSSGAPPPS-NH2; disulfide linkage between the bracketed Cys
B3: Example 65 (peptide)
peptide: XEKEKEKGSKXRSSCFGGRIDRIGHYSGLGCPSFRHGGPSSGAPPPS
modifications: HOOC-(CH2)18-CO-(γGlu)-EKEKEKGSK-βAla-RSS[CFGGRIDRIGHYSGLGC]PSFRHGGPSSGAPPPS-NH2; thioacetal linkage between the bracketed Cys
B4: Example 2 (peptide)
peptide: XEKEKEKGSXRRSSCFGGRIDRIGHQSGLGCPSFRHGGPSSGAPPPS
modifications: HOOC-(CH2)18-CO-(γGlu)-EKEKEKGS-4Pal-RRSS[CFGGRIDRIGHQSGLGC]PSFRHGGPSSGAPPPS-NH2; thioacetal linkage between the bracketed Cys
B5: rat ANP (amidated) (peptide)
peptide: SLRRSSCFGGRIDRIGAQSGLGCNSFRY-NH2
modifications: disulfide 7-23; N-terminus assumed
SMILES: CC[C@H](C)[C@@H]1NC(=O)[C@H](CCCNC(=N)N)NC(=O)[C@H](CC(=O)O)NC(=O)[C@H]([C@@H](C)CC)NC(=O)[C@H](CCCNC(=N)N)NC(=O)CNC(=O)CNC(=O)[C@H](Cc2ccccc2)NC(=O)[C@@H](NC(=O)[C@H](CO)NC(=O)[C@H](CO)NC(=O)[C@H](CCCNC(=N)N)NC(=O)[C@H](CCCNC(=N)N)NC(=O)[C@H](CC(C)C)NC(=O)[C@@H](N)CO)CSSC[C@@H](C(=O)N[C@@H](CC(N)=O)C(=O)N[C@@H](CO)C(=O)N[C@@H](Cc2ccccc2)C(=O)N[C@@H](CCCNC(=N)N)C(=O)N[C@@H](Cc2ccc(O)cc2)C(N)=O)NC(=O)CNC(=O)[C@H](CC(C)C)NC(=O)CNC(=O)[C@H](CO)NC(=O)[C@H](CCC(N)=O)NC(=O)[C@H](C)NC(=O)CNC1=O
B6: Example 61 (peptide)
peptide: SXRRSSCFGGRIDRIGHQSGLGCPSFRHGGPSSGAPPPS
modifications: HOOC-(CH2)18-CO-(γGlu)-EKEKEKG-PEG24-S-4Pal-RRSS[CFGGRIDRIGHQSGLGC]PSFRHGGPSSGAPPPS-NH2; thioacetal linkage between the bracketed Cys

Key:
human NPRA = molecular target: T1, human NPRA; experiment: cell-based or functional assay
rat NPRA = molecular target: T2, rat NPRA; experiment: cell-based or functional assay

Binder | cGMP Assay (EC50, pM) w/BSA (human NPRA) | cGMP Assay (EC50, pM) w/Casein (human NPRA) | cGMP Assay (EC50, pM) w/BSA (rat NPRA) | cGMP Assay (EC50, pM) w/Casein (rat NPRA)
{C20 diacid}-[γGlu]EKEKEKGEK[βAla]RSSCFGGRIDRIGHYSGLGCPSFRHGGPSSGAPPPS-NH2 (disulfide 15-31) [Example 54] | 19300 pM | 369 pM | 77200 pM | 796 pM
B1 | 6920 pM | 980 pM | 959000 pM | 36600 pM
{C20 diacid}-[γGlu]EKEKEKGEK[βAla]RSSCFGGRIDRIGHYSGLGCPSFRHGGPSSGAPPPS-NH2 (bridge 15-31 via thioacetal) [Example 56] | 145000 pM | 855 pM | 1.38e+06 pM | 11200 pM
{C20 diacid}-[γGlu]EKEKEKGEK[βAla]RSSCFGGRIDRIGHYSGLGCPSFRHGPSSGAPPPS-NH2 (bridge 15-31 via thioacetal) [Example 60] | 81700 pM | 453 pM | 962000 pM | 4830 pM
{C20 diacid}-[γGlu]EKEKEKGS[4Pal]KRSSCFGGKIDRIGHQSGLGCPSFRHKITAKEDE-NH2 (disulfide 15-31) [Example 34] | 26100 pM | 291 pM | 422000 pM | 1200 pM
B2 | 11600 pM | 335 pM | 81900 pM | 1810 pM
B3 |  | 614 pM |  | 7420 pM
B4 | 93400 pM | 1020 pM | 1.27e+06 pM | 14100 pM
{C20 diacid}-[γGlu]EKEKEKGEKGRSSCFGGRIDRIGHYSGLGCPSLRHGGPSSGAPPPS-NH2 (disulfide 15-31) [Example 51] | 11100 pM | 361 pM | 82700 pM | 909 pM
{C20 diacid}-[γGlu]EKEKEKGKE[βAla]RSSCFGGRIDRIGHYSGLGCPSFRHGGPSSGAPPPS-NH2 (bridge 15-31 via thioacetal) [Example 58] | 104000 pM | 1220 pM | 1.38e+06 pM | 7150 pM
B5 | 138 pM | 128 pM | 114 pM | 73 pM
{C20 diacid}-[γGlu]EKEKEKGS[4Pal]RRSSCFGGRIDRIGHQSGLGCPSFRHSGAPPPSE-NH2 (disulfide 15-31) [Example 39] | 9970 pM | 276 pM | 93300 pM | 439 pM
{C20 diacid}-[γGlu]EKEKEKGS[4Pal]RRSSCFGGRIDRIGHQSGLGCPSFRHGGKSSGAPPPS-NH2 (bridge 15-31 via thioacetal) [Example 67] | 139000 pM | 1220 pM | 1.55e+06 pM | 18800 pM
B6 | 9000 pM | 912 pM | 463000 pM | 32000 pM
{C20 diacid}-[γGlu]EKEKEKGS[4Pal]KRSSCFGGKIDRIGHQSGLGCPSFRHGPSSGAPPPS-NH2 (disulfide 15-31) [Example 33] | 22200 pM | 199 pM | 112000 pM | 383 pM
{C20 diacid}-[γGlu]EKEKEKGEK[βAla]RSSCFGGRIDRIGHYSGLGCPSLRHGGPSSGAPPPS-NH2 (bridge 15-31 via thioacetal) [Example 63] | 63800 pM | 1090 pM | 785000 pM | 10600 pM
